This passage reports kcat results from ChEMBL document CHEMBL1153299, “Carbonic anhydrase activators: activation of the beta-carbonic anhydrase Nce103 from the yeast Saccharomyces cerevisiae with amines and amino acids” (Bioorg Med Chem Lett, 2009).

Substrate in this data set: NCCc1c[nH]cn1
The note with it: Saccharomyces cerevisiae.

Description: Activity at yeast recombinant CA expressed in Escherichia coli

B1: Carbonic anhydrase (Saccharomyces cerevisiae S288c), P53615 (protein)
chain: MSATESSSIFTLSHNSNLQDILAANAKWASQMNNIQPTLFPDHNAKGQSPHTLFIGCSDSRYNENCLGVLPGEVFTWKNVANICHSEDLTLKATLEFAIICLKVNKVIICGHTDCGGIKTCLTNQREALPKVNCSHLYKYLDDIDTMYHEESQNLIHLKTQREKSHYLSHCNVKRQFNRIIENPTVQTAVQNGELQVYGLLYNVEDGLLQTVSTYTKVTPK
As for B1, the kcat is 19.6 ×10⁵ /s.
